According to US20240262879A1 (Boehringer Ingelheim, published 2024):
Where a chain is given by its changes, count along the chain named.

T1: Interleukin-12 (IL-12) (human, UniProt P29459 23-219; P29460 23-328)
T1 sequence 1: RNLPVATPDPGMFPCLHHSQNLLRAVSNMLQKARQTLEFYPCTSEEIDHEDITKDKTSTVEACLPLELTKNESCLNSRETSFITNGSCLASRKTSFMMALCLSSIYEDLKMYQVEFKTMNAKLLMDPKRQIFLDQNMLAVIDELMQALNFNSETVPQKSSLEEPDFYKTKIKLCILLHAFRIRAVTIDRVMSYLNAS
T1 sequence 2: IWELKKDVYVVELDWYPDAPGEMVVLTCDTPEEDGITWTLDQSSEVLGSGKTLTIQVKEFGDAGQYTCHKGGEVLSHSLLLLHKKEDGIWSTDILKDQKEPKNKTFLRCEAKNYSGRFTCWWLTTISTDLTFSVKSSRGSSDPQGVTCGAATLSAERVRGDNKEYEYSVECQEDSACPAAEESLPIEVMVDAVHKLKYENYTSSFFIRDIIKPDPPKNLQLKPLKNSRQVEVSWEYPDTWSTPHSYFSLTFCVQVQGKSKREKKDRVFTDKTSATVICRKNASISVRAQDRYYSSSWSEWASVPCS

B1: BI-039 (VHH)
VHH: QVQLVESGGGLVQAGGSLRLSCAASGRTFETIAMGWFRQVPGKEREFVAVIRGSGVATYYPDSVKGRFTISKDSAKNTVYLQMNNLKPEDTAVYYCAATTNRFKNTDYTTYDYWGQGTQVTVSS
B2: BI-048 (VHH)
VHH: EVQLVESGGGLVQPGGSLRLSCAASGRTFETIAMGWFRQAPGKGLEFVAVIRGSGVATYYAESVKGRFTISKDSSKNTVYLQMNSLRAEDTAVYYCAATTNRFKNTDYTTYDYWGQGTQVTVSS
notes: Humanised variant of BI-039, the selected masking domain; also called Mix 13
B3: BI-063 (VHH)
VHH: B2 VHH with G44E, L45R, A61P, E62D
notes: Variant of BI-039; also called 61-Gft-106; BI-063 VHH
B4: BI-117 (VHH)
VHH: B2 VHH with G44E, L45R, A61P
notes: also called 61-Gft-106_D62E
B5: BI-119 (VHH)
VHH: B2 VHH with G44E, L45R, A61P, T106R
B6: BI-120 (VHH)
VHH: B2 VHH with G44E, L45R, A61P, D107E
B7: BI-123 (VHH)
VHH: B2 VHH with G44E, L45R, Y59S, A61P
B8: BI-049 (VHH)
VHH: B2 VHH with T106R, D107E
notes: Variant of BI-039, mask of BI-054; also called Mix 15
B9: BI-057 (Fc fusion)
chain 1: EPKSSDKTHTCPPCPAPEAAGGPSVFLFPPKPKDTLMISRTPEVTCVVVDVSHEDPEVKFNWYVDGVEVHNAKTKPREEQYNSTYRVVSVLTVLHQDWLNGKEYKCKVSNKALPAPIEKTISKAKGQPREPQVYTLPPSREEMTKNQVSLWCLVKGFYPSDIAVEWESNGQPENNYKTTPPVLDSDGSFFLYSKLTVDKSRWQQGNVFSCSVMHEALHNHYTQKSLSLSPGGGGGSGGGGGPLGVRGGGGGSIWELKKDVYVVELDWYPDAPGEMVVLTCDTPEEDGITWTLDQSSEVLGSGKTLTIQVKEFGDAGQYTCHKGGEVLSHSLLLLHKKEDGIWSTDILKDQKEPKNKTFLRCEAKNYSGRFTCWWLTTISTDLTFSVKSSRGSSDPQGVTCGAATLSAERVRGDNKEYEYSVECQEDSACPAAEESLPIEVMVDAVHKLKYENYTSSFFIRDIIKPDPPKNLQLKPLKNSRQVEVSWEYPDTWSTPHSYFSLTFCVQVQGKSKREKKDRVFTDKTSATVICRKNASISVRAQDRYYSSSWSEWASVPCSGGGGSGGGGSGGGGSRVIPVSGPARCLSQSRNLLKTTDDMVKTAREKLKHYSCTAEDIDHEDITRDQTSTLKTCLPLELHKNESCLATRETSSTTRGSCLPPQKTSLMMTLCLGSIYEDLKMYQTEFQAINAALQNHNHQQIILDKGMLVAIDELMQSLNHNGETLRQKPPVGEADPYRVKMKLCILLHAFSTRVVTINRVMGYLSSAGSGGLRELHLDNN
chain 2: EPKSSDKTHTCPPCPAPEAAGGPSVFLFPPKPKDTLMISRTPEVTCVVVDVSHEDPEVKFNWYVDGVEVHNAKTKPREEQYNSTYRVVSVLTVLHQDWLNGKEYKCKVSNKALPAPIEKTISKAKGQPREPQVYTLPPSREEMTKNQVSLSCAVKGFYPSDIAVEWESNGQPENNYKTTPPVLDSDGSFFLVSKLTVDKSRWQQGNVFSCSVMHEALHNRFTQKSLSLSPGGGGGSGGGGSGGGGSGGGGSGGGGSEVQLVESGGGLVQPGGSLRLSCAASGRTFETIAMGWFRQAPGKGLEFVAVIRGSGVATYYAESVKGRFTISKDSSKNTVYLQMNSLRAEDTAVYYCAATTNRFKNTDYTTYDYWGQGTQVTVSSA
notes: Knob-into-hole heterodimer; human p40, mouse p35; also called chimeric IL-12 Fc fusion protein containing collagen I TME linker

Target: T1, Interleukin-12 (IL-12)
Test: cell-based or functional assay

Binder | IC50
B1 | 0.61 nM
B2 | 0.44 nM
B3 | 0.89 nM
B4 | 0.36 nM
B5 | 2.4 nM
B6 | 2.5 nM
B7 | 10 nM
B8 | 5.7 nM

Target: T1, Interleukin-12 (IL-12)
Test: affinity for IL-12; method not stated

Binder | Kd
B1 | 3.5 nM
B2 | 3.7 nM
B3 | 3.4 nM
B4 | 3 nM
B5 | 8.5 nM
B6 | 4.1 nM
B7 | 30 nM
B8 | 12 nM

Target: collagen present in fibrotic rat livers (rat)
Test: 24 h incubation with fibrotic rat liver slices, recovered protein by MSD U-PLEX
Procedure: (§1) FIGS. 26A-26B: Precision cut liver slices were prepared from fibrotic rat livers. IL-12 Fc fusion proteins (BI-057 or BI-065; in amounts indicated in figure legends) were added to the slices and incubated for 24 hours (FIG. 26A) or 2 hours followed by 22 h recovery period (FIG. 26B). After 2 h incubation, fusion proteins were thoroughly washed and incubated for another 22 h in medium before harvest. After 24 h, slices were collected, lysed and homogenized. The amount of IL-12 Fc fusion proteins recovered from the slices was determined with the MSD U-PLEX Biomarker Assay using IL-12 Fc fusion proteins as standards.
(§2) Briefly, tissue cores are cut from the fibrotic rat liver using a 5 mm cylindrical motorized tissue coring press (Alabama R&D, MD5000), and 300 μm thick tissue slices are cut using a tissue slicer (Alabama R&D, MD6000). All tissue slices are cultured with a floating culture system (60 rpm) in 12 well plates (Nunc) in a humidified incubator, 95% O₂/5% CO₂, 37° C. in 1.3 mL supplemented William's Medium E (Life Technologies).

Binder | fold decrease in fold recovery from liver slices against BI-065
B9 | > 10 fold

Target: T2, rat collagen I (rat, UniProt P02454 152-1207; P02466 86-1125)
T2 construct: Bought; also called Rat collagen (Corning)
Test: ELISA on plates coated with rat collagen I (Corning), detection with anti-human Fc
Procedure: (§3) Collagen binding properties were further evaluated in ELISA assay. Chimeric IL-12 Fc fusion protein BI-065 or chimeric IL-12 Fc fusion protein containing collagen I TME linker BI-057 were added to collagen I-coated plates. To this end, plates were coated either with rat collagen I (FIG. 25A) or with human skin collagen I (FIG. 25B).
(§4) Briefly, high binding microplates (greiner) are coated over night at 4° C. with rat collagen (Corning) or human collagen (Millipore/R&D) diluted in coating buffer (Invitrogen) with a concentration of 0.005 mg/mL. IL-12 Fc fusion proteins are diluted in PBS+1% BSA and added to collagen precoated plates for 2 hours. The plates are blocked with 1% BSA before addition of proteins to minimize unspecific binding. Next, plates are washed 3× followed by incubation with biotinylated anti-human Fc antibody (Invitrogen). After additional washing step, Streptavidin-HRP are added to the plates. Substrate are added to plates after a washing step and plates are read in ELISA reader (Tecan).

T2 sequence (P02454 152-1207, chain 1 of 2): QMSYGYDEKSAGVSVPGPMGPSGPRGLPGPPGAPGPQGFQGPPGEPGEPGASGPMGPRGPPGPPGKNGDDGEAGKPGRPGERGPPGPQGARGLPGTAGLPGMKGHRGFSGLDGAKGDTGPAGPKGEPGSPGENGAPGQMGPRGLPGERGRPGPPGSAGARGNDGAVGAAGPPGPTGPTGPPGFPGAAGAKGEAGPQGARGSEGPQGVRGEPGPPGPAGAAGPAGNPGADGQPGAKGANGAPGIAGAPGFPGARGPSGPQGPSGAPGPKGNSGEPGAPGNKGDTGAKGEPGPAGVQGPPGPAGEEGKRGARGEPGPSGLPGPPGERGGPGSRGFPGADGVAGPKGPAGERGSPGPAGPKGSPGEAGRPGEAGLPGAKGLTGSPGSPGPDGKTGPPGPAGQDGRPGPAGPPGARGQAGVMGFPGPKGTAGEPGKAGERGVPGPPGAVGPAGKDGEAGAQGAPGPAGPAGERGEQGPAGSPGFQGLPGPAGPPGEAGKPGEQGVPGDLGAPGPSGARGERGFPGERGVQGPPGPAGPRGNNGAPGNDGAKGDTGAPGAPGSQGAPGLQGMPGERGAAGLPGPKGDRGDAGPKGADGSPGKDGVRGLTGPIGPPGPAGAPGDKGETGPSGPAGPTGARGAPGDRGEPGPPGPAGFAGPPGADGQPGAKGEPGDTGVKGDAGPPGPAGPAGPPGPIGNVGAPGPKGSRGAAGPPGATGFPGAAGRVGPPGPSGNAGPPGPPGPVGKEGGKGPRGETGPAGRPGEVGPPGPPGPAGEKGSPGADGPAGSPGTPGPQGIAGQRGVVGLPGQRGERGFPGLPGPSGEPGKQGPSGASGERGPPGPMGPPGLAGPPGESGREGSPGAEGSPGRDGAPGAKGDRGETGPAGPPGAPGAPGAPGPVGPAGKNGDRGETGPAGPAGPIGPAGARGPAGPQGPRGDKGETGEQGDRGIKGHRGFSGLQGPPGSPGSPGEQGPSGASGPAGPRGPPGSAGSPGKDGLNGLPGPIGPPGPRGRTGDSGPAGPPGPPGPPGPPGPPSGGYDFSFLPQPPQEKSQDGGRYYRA
T2 sequence (P02466 86-1125, chain 2 of 2): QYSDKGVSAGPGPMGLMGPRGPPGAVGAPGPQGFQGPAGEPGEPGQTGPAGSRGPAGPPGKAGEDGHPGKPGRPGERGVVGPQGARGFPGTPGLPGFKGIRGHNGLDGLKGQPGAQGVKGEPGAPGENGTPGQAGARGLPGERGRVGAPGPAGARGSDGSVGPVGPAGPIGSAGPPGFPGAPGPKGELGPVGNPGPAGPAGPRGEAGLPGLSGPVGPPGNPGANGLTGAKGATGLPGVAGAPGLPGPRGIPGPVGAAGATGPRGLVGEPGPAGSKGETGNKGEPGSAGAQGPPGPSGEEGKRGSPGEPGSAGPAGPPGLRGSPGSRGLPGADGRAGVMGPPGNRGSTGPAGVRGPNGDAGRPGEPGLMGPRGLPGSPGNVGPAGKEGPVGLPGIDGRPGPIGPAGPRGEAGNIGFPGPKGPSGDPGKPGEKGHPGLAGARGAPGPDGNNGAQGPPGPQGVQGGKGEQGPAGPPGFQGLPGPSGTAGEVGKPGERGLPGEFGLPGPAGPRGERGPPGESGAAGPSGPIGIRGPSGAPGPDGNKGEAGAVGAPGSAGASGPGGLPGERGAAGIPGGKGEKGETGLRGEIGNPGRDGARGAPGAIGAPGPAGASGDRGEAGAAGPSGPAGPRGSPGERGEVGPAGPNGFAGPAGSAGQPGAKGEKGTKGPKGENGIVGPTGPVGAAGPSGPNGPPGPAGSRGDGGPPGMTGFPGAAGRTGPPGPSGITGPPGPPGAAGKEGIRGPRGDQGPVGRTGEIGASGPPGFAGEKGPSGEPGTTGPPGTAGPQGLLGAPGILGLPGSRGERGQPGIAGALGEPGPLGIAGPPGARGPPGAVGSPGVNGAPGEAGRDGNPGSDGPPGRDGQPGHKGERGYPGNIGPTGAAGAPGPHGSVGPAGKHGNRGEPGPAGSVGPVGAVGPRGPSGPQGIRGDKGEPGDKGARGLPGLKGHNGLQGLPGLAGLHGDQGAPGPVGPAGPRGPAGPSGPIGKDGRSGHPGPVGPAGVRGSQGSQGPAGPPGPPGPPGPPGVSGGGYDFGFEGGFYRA

Binder | EC50
B9 | 26 nM

Target: T3, human collagen type 1 (human, UniProt P02452 162-1218; P08123 80-1119, limits assumed)
T3 construct: Bought or cell-made collagen; also called human collagen I; human collagen (Millipore/R&D)
Test: ELISA on plates coated with human collagen I (Millipore/R&D), detection with anti-human Fc
Procedure: as §3, §4

T3 sequence (P02452 162-1218 limits assumed, chain 1 of 2): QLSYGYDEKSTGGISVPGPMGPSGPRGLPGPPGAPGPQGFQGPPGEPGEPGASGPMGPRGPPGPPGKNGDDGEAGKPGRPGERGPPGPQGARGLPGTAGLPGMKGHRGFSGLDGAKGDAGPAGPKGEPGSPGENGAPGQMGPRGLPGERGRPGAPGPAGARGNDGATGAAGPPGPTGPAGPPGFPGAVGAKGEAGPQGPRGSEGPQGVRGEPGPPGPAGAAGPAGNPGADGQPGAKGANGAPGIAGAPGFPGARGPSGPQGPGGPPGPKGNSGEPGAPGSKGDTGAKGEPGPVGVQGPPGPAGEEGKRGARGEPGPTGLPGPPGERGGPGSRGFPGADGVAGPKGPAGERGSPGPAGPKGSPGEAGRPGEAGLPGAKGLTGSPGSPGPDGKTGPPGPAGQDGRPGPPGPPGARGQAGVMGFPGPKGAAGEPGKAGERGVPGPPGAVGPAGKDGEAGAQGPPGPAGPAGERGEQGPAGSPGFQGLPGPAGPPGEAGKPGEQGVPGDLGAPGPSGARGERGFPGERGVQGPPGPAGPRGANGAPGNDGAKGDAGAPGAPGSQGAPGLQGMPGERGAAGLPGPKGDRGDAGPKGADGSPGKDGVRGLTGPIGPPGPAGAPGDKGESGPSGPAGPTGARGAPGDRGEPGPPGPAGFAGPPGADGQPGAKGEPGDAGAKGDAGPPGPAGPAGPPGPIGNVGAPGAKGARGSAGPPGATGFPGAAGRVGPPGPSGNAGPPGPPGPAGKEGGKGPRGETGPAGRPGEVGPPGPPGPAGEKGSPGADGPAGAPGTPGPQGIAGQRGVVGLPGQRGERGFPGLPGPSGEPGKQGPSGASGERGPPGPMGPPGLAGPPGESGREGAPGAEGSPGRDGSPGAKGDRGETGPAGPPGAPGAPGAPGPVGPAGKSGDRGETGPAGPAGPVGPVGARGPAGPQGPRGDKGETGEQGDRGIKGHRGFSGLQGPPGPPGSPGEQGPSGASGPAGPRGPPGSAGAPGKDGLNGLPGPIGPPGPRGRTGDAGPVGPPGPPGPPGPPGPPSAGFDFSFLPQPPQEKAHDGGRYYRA
T3 sequence (P08123 80-1119 limits assumed, chain 2 of 2): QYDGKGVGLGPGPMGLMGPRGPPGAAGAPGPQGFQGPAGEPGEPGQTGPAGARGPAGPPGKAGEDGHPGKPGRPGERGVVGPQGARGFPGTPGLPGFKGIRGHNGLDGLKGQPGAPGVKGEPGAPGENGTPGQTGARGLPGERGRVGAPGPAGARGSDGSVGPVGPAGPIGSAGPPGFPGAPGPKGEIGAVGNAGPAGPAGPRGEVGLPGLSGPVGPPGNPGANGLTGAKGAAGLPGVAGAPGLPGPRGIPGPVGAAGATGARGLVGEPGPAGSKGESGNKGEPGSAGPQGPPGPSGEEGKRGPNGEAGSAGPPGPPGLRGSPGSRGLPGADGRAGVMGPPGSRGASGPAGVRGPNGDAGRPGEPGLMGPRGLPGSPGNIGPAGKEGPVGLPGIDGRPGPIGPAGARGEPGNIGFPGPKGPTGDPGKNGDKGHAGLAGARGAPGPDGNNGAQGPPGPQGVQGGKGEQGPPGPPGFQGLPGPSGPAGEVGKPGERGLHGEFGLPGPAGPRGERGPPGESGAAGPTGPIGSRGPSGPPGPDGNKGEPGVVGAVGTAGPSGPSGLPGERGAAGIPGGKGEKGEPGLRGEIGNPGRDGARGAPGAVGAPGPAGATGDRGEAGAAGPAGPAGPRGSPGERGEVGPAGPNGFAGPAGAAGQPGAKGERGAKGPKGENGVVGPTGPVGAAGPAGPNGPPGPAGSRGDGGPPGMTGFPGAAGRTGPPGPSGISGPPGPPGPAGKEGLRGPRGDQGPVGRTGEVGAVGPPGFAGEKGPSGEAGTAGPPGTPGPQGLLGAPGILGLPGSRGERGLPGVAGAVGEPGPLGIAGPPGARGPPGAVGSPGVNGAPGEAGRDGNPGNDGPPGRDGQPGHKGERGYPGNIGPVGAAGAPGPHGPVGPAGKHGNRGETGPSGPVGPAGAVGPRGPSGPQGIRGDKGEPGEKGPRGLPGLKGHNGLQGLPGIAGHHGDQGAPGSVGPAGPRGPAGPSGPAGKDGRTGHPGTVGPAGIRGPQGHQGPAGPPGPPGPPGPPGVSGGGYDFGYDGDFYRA

Binder | EC50
B9 | 75 nM

Target: collagen present in fibrotic rat livers (rat)
Test: 2 h incubation, wash and 22 h culture of fibrotic rat liver slices, recovered protein by MSD U-PLEX
Procedure: as §1, §2

Binder | fold recovery from liver slices against BI-065
B9 | 10 fold
